This is an account of results in US20160053014A1 (SORRENTO THERAPEUTICS, published 2016).

The target in assay [1] is T1, human CXCR5 (human, UniProt P32302 1-372).
T1 sequence (looked up): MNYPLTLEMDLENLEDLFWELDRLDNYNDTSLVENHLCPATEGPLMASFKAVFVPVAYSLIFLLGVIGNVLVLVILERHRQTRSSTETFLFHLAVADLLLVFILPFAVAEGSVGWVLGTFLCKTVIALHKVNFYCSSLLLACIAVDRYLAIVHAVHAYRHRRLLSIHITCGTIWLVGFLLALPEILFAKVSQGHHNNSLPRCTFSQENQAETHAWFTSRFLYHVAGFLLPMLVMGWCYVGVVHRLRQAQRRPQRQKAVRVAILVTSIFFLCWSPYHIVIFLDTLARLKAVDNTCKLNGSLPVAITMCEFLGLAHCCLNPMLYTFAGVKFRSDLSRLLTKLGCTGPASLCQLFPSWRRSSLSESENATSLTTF
Put plainly: cell-based or functional assay.

Assay [2] concerns the target T1, human CXCR5. The experiment in a line: cell-based or functional assay. The source holds these as a separate data set.
The target of assay [3] is T1, human CXCR5. The experiment in a line: flow cytometry on CHO-CXCR5 cells, IgG titration. The source says:
This example describes a cellular binding assay to determine the EC₅₀ for anti-CXCR5 antibodies binding to human CXCR5. […] In this example, CHO-CXCR5 cells were lifted from culture flasks using non-enzymatic Cell Dissociation Buffer—PBS based (Life Technologies #13151-014). Cells were resuspended in FACS Buffer (2% Fetal Bovine Serum in PBS) at 1×10⁶ cells/ml and […] were aliquoted into the wells of a 96-well plate. Plated cells were spun down and the supernatant discarded. Cells were resuspended in 30 μl FACS Buffer serially diluted concentrations of CXCR5 IgG in triplicate. Plates were incubated for 1 hr at 4° C. and then washed 2× with FACS Buffer. Cells were resuspended in 50 μl goat anti-human IgG (γ-chain specific)-PE conjugated secondary antibody (Southern Biotech #2040-09) diluted 1:500 in FACS Buffer. Cells were further incubated for 30 min at 4° C. and then washed 1× with FACS Buffer. The cells were resuspended in a final volume of 30 μl FACS Buffer and analyzed using the Intellicyt Flow Cytometer. Median fluorescence in the FL-2H channel was determined using FlowJo software and EC₅₀ value was determined by plotting the data in GraphPad Prism and analyzing using a variable slope non-linear regression.
On the technique in general: A flow cytometer gives signals particle by particle.

B1: 11A7 (antibody, human IgG1, V domains shown)
VH: EVQLVESGGGLVQPGGSLRLSCAASGFTVSSNYMSWVRQAPGKGLEWVSVIYSGGSTYYADSVKGRFTISRHNSKNTLYLQMNSLRAEDTAVYYCARGYVVWGQGTLVTVSS
VL: QPVLTQPPSVSKDLRQTATLTCTGNSNNVGNQGATWLQQHQGHPPKLLSYKNNNRPSGISERFSASRSGNTASLTITGLQPEDEADYYCSAWDSSLSAWVFGGGTQLTVL
notes: 'Antibody 11A7 is a fully human IgG1'
Take B1: the “IC50 [nM] of mAbs in chemotaxis assay using HS-Sultan cells (25 nM CXCL13)” value with human CXCR5 [1] turned out to be 4.8 nM. In addition, the “IC50 [nM] of mAbs in calcium flux assay using CHO-CXCR5 cells (challenge with 9 nM CXCL13)” value with human CXCR5 [2] came out at 5 nM. For the same molecule, a half-maximal response in the assay with human CXCR5 [3] (EC50) required 0.9 nM.

Usually EC50 stands for the midpoint of the concentration-response curve. Low readings indicate a more potent agent, high ones a less potent agent.
